T1: human CD30 (human, UniProt P28908 19-595)
T1 construct: The same molecule is used for CD30 on HL/ALCL/NHL cell lines; also called huCD30; TNFRSF8
T1 sequence: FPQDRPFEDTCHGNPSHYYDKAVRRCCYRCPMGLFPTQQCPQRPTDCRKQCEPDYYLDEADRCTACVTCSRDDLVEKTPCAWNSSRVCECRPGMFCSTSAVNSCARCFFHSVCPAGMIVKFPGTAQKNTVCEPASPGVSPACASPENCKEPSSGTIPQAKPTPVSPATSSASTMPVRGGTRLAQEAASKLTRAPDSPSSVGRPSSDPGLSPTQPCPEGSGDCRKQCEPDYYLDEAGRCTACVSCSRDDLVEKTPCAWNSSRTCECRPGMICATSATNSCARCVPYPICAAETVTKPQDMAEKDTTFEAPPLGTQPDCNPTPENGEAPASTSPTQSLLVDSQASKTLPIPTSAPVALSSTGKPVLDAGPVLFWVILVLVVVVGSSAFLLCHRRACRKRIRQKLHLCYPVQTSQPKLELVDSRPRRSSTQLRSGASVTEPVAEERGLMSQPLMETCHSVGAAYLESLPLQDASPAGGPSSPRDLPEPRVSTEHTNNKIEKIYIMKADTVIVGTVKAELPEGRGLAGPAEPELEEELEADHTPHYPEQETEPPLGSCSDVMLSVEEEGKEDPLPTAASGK

T2: rhesus monkey (Macaca mulatta) CD30 (rhesus monkey, UniProt P28908 19-595 (human entry))
T2 construct: also called mmCD30
T2 chain: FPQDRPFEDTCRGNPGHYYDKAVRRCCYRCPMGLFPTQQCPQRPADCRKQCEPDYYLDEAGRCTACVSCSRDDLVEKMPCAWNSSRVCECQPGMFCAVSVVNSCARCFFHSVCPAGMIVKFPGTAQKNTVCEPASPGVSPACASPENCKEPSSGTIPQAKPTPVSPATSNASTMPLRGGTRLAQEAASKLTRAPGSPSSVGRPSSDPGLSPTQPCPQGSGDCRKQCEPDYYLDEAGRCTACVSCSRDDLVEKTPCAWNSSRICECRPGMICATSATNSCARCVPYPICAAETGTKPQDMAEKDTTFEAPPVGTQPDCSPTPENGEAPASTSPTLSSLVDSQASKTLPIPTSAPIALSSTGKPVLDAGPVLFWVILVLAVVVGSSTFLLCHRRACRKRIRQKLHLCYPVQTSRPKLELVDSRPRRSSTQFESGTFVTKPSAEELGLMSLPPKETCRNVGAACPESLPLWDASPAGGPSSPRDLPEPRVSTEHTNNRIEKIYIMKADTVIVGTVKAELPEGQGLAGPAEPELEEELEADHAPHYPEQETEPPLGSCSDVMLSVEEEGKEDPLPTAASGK

B1: bsG1-huCD3-FEALxCD30-MDX060-FEAR (bispecific antibody, human IgG1, kappa, lambda)
heavy 1: not shown
light 1: not shown
heavy 2: QVQLQQWGAGLLKPSETLSLTCAVYGGSFSAYYWSWIRQPPGKGLEWIGDINHGGGTNYNPSLKSRVTISVDTSKNQFSLKLNSVTAADTAVYYCASLTAYWGQGSLVTVSSASTKGPSVFPLAPSSKSTSGGTAALGCLVKDYFPEPVTVSWNSGALTSGVHTFPAVLQSSGLYSLSSVVTVPSSSLGTQTYICNVNHKPSNTKVDKRVEPKSCDKTHTCPPCPAPEFEGGPSVFLFPPKPKDTLMISRTPEVTCVVVAVSHEDPEVKFNWYVDGVEVHNAKTKPREEQYNSTYRVVSVLTVLHQDWLNGKEYKCKVSNKALPAPIEKTISKAKGQPREPQVYTLPPSREEMTKNQVSLTCLVKGFYPSDIAVEWESNGQPENNYKTTPPVLDSDGSFFLYSRLTVDKSRWQQGNVFSCSVMHEALHNHYTQKSLSLSPG
light 2: DIQMTQSPTSLSASVGDRVTITCRASQGISSWLTWYQQKPEKAPKSLIYAASSLQSGVPSRFSGSGSGTDFTLTISSLQPEDFATYYCQQYDSYPITFGQGTRLEIKRTVAAPSVFIFPPSDEQLKSGTASVVCLLNNFYPREAKVQWKVDNALQSGNSQESVTEQDSKDSTYSLSSTLTLSKADYEKHKVYACEVTHQGLSSPVTKSFNRGEC
notes: also called bsG1-huCD3xCD30-MDX060
B2: bsG1-huCD3-FEALxCD30-MDX060-FERR (bispecific antibody, human IgG1, kappa, lambda)
heavy 1: not shown
light 1: not shown
heavy 2: QVQLQQWGAGLLKPSETLSLTCAVYGGSFSAYYWSWIRQPPGKGLEWIGDINHGGGTNYNPSLKSRVTISVDTSKNQFSLKLNSVTAADTAVYYCASLTAYWGQGSLVTVSSASTKGPSVFPLAPSSKSTSGGTAALGCLVKDYFPEPVTVSWNSGALTSGVHTFPAVLQSSGLYSLSSVVTVPSSSLGTQTYICNVNHKPSNTKVDKRVEPKSCDKTHTCPPCPAPEFERGPSVFLFPPKPKDTLMISRTPEVTCVVVDVSHEDPEVKFNWYVDGVEVHNAKTKPREEQYNSTYRVVSVLTVLHQDWLNGKEYKCKVSNKALPAPIEKTISKAKGQPREPQVYTLPPSREEMTKNQVSLTCLVKGFYPSDIAVEWESNGQPENNYKTTPPVLDSDGSFFLYSRLTVDKSRWQQGNVFSCSVMHEALHNHYTQKSLSLSPG
light 2: DIQMTQSPTSLSASVGDRVTITCRASQGISSWLTWYQQKPEKAPKSLIYAASSLQSGVPSRFSGSGSGTDFTLTISSLQPEDFATYYCQQYDSYPITFGQGTRLEIKRTVAAPSVFIFPPSDEQLKSGTASVVCLLNNFYPREAKVQWKVDNALQSGNSQESVTEQDSKDSTYSLSSTLTLSKADYEKHKVYACEVTHQGLSSPVTKSFNRGEC
notes: Bispecific IgG1 made by controlled Fab-arm exchange; also called bsIgG1-huCD3-FEALxCD30-MDX060-FERR; bsG1-huCD3×CD30-MDX060

What was measured:
[1] = target: T1, human CD30; test: flow cytometry, HDLM-2 cells, experiment N = 1
[2] = target: T1, human CD30; test: flow cytometry, KARPAS-299 cells (ALCL), range of 2 tests
Procedure: (§1) Cells (3×10⁴ cells/well) were incubated in polystyrene 96-well round-bottom plates (Greiner bio-one, cat. no. 650180) with serial dilutions of antibodies (range 0.0046 to 10 μg/mL in 3-fold dilution steps) in 50 μL staining buffer at 4° C. for 30 min. After washing twice in staining buffer, cells were incubated with 50 μL secondary antibody at 4° C. for 30 min. […] Next, cells were washed twice in staining buffer, resuspended in 100 μL staining buffer supplemented with TO-PRO-3 iodide (Thermo Fisher Scientific; cat. no. T3605; 1:8000 dilution) and analyzed on a FACSCelesta flow cytometer (BD Biosciences, USA). Live cells were gated based on FSC/SSC and absence of TOPRO-3 staining. Binding curves were analyzed by non-linear regression of log-transformed data (sigmoidal dose-response with variable slope, four parameters) using GraphPad Prism V7.02 software (GraphPad Software, San Diego, CA, USA).

[3] = target: T2, rhesus monkey (Macaca mulatta) CD30; test: flow cytometry, HEK293 cells; panel title 'HEK293 rhesus CD30'
Procedure: Cells (3×10⁴ cells/well) were incubated in polystyrene 96-well round-bottom plates (Thermo Scientific, cat. no. 163320) with serial dilutions of antibodies (ranging from 0.0002 to 50 μg/mL in 4-fold dilution steps) in 50 μL staining buffer at 4° C. for 30 min. Experiments were performed in technical duplicate. After washing twice in staining buffer, cells were incubated in 50 μL secondary antibody at 4° C. for 30 min. As a secondary antibody, R-PE-conjugated goat-anti-human IgG (Jackson ImmunoResearch, UK; cat. no. 109⁻¹¹⁶-098) diluted 1:200 in staining buffer was used. Cells were washed twice in staining buffer, resuspended in 30 μL staining buffer containing 0.4% EDTA and the ToPro-3 viability marker (Invitrogen, cat. no. T3605) diluted 1:10,000. Cells were analyzed on an iQue Screener (Intellicyt Corporation, USA). Binding curves were analyzed using non-linear regression (sigmoidal dose-response with variable slope) using GraphPad Prism V9.0.0 software (GraphPad Software, San Diego, CA, USA).

[4] = target: T1, human CD30; test: flow cytometry, HH cells (CTCL), average of 3 tests
Procedure: as §1

Row | Binder | EC50 [1] [µg/mL] | EC50 [2] [µg/mL] | EC50 (read off the curve) [3] [µg/mL] | EC50 [4] [µg/mL]
1 | B1 | 0.145 |  |  | 
2 | B2 |  | 0.134 to 0.269 | ~0.07 | 0.195

Reference: US20260234255A1 (Genmab, published 2026)
